US20120141537A1

How the values were obtained:
Assay in all cases: cell-based or functional assay
[1] = biological target: H-2K^b wild type complexed with Q7 peptide SIINFEQL (SEQ ID NO:2) (mouse) (UniProt P01901)
[2] = biological target: H-2K^b wild type complexed with SIINFEKL (SEQ ID NO:1) (mouse; chicken) (UniProt P01901)
[3] = biological target: K^bm3 complexed with Q7 peptide (SEQ ID NO:2) (mouse) (UniProt P01901)

Substance: OT-1 T cell receptor (TCR)
- Day 14 Diabetes in B6-RIP-OVA mice given naive OT-1 spleen cells and peptide-pulsed RMAS cells [1]: 0 of 4 mice
- Day 21 Diabetes after day 15 challenge with TMEV-SIINFEKL [1]: 0 of 4 mice
- Day 14 Diabetes in B6-RIP-OVA mice given naive OT-1 spleen cells and peptide-pulsed RMAS cells [2]: 0 of 2 mice
- Day 21 Diabetes after day 15 challenge with TMEV-SIINFEKL [2]: 2 of 2 mice
- Day 14 Diabetes in B6-RIP-OVA mice given naive OT-1 spleen cells and peptide-pulsed RMAS cells [3]: 0 of 4 mice
- Day 21 Diabetes after day 15 challenge with TMEV-SIINFEKL [3]: 3 of 4 mice
- diabetes (>300 mg/dL blood glucose) after TMEV-L/OVA challenge on day 15 (FIG. 4) [3]: 65 % of mice
